Source: patent US20240301052A1 (LANOVA MEDICINES DEVELOPMENT, published 2024)
Read-outs that look alike come from different tables or passages of the source. Values belong to the molecule of their own block, whether it stands above or below them.

Experiments:
[1] = molecular target: T1, human SLC34A2 (human, UniProt O95436 1-690); test: FACS, OVCAR3 cells
T1 sequence (looked up): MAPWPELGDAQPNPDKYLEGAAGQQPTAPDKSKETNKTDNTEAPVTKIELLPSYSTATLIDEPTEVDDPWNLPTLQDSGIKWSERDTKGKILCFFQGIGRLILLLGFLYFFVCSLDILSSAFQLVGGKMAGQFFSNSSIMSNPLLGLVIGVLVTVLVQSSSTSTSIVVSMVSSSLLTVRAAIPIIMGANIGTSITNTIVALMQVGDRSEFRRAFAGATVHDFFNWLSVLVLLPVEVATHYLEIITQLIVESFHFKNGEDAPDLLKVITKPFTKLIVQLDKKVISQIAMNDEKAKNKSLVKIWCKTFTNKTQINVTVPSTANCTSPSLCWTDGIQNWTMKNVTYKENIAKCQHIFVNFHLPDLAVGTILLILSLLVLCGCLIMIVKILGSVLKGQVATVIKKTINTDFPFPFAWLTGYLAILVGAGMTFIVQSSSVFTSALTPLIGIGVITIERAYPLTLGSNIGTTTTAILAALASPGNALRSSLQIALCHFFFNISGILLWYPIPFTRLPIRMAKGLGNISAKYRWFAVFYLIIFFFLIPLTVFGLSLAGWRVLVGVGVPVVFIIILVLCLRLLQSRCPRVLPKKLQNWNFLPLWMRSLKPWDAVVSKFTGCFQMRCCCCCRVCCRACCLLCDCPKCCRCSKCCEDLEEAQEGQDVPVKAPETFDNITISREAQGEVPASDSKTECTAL

[2] = molecular target: T1, human SLC34A2; test: FACS, RMG-1 cells
Method: (§1) In another testing, cell based binding of hu Abs on human SLC34A2 expressing cells were assessed using flow cytometry. Briefly, the HEK293/H_SLC34A2, OVCAR3 and RMG-1 cells were incubated with hu Abs. After incubation at 4° C. for 60 minutes, the cells were washed with FACS buffer twice, then stained with fluorescent conjugated secondary antibody at 4° C. for 30 minutes. After that the cells were washed twice and analyzed by flow cytometry.

[3] = molecular target: T1, human SLC34A2; test: FACS, OVCAR3 cells
[4] = molecular target: T1, human SLC34A2; test: FACS, OVCAR3 cells; remark: listed apart in the source
Method: The binding of these humanized antibodies to OVCAR3 cells was evaluated as described above, and the results are shown in FIG. 12A-D and Tables 16A-D.

[5] = molecular target: T1, human SLC34A2; test: FACS, OVCAR3 cells; remark: listed apart in the source
Method: as §1

[6] = molecular target: T1, human SLC34A2; test: cell-based or functional assay
[7] = molecular target: T1, human SLC34A2; test: FACS, HEK293/human SLC34A2 cells
Method: The PTM-derisked VH chains were first tested for their impact on target binding. Cell based binding of PTM Abs on human SLC34A2 expressing cells were assessed using flow cytometry. Briefly, the HEK293/H_SLC34A2 cells were incubated with PTM Abs (from 200 nM, 4 folds dilution, 8 points). After incubation at 4° C. for 60 minutes, the cells were washed with FACS buffer twice, then stained with fluorescent conjugated secondary antibody at 4° C. for 30 minutes. After that the cells were washed twice and analyzed by flow cytometry.

[8] = molecular target: T1, human SLC34A2; test: FACS, HEK293/human SLC34A2 cells; remark: listed apart in the source
Method: as §1

[9] = molecular target: T2, Rhesus SLC34A2 (Rhesus, UniProt F7HDA3 1-690); test: FACS, HEK293/Rhesus SLC34A2 cells
T2 construct: whole, on cells
T2 sequence: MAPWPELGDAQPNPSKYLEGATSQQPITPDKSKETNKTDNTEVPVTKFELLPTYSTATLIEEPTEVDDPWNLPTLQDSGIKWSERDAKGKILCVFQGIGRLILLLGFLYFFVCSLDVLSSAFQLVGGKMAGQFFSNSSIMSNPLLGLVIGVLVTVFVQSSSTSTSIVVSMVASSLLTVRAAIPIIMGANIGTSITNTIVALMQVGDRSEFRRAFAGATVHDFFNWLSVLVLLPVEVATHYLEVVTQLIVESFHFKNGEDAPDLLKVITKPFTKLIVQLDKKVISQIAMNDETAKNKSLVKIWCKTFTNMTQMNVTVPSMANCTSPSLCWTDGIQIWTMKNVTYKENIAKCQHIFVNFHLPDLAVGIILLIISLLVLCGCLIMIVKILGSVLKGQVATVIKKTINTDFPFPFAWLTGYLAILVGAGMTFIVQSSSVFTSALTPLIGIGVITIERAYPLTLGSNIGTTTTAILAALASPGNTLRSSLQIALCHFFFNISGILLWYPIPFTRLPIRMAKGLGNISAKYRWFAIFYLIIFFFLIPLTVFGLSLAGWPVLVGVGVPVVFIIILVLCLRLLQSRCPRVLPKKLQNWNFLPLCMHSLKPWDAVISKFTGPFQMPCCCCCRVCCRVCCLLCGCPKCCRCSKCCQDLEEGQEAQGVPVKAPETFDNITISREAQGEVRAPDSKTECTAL

[10] = molecular target: T2, Rhesus SLC34A2; test: FACS, HEK293/Rhesus SLC34A2 cells; remark: listed apart in the source

EC50 [1]: 2900 nM | Top (MFI) [1]: 1570 MFI
Molecule: hIgG1 Isotype (antibody)

EC50 [2]: 1.09 nM | Top [2]: 11100 MFI | EC50 [3]: 1.5 nM | Top (MFI) [3]: 70400 MFI | EC50 [4]: 0.68 nM | Top (MFI) [4]: 28700 MFI | EC50 [5]: 0.37 nM | ADCC reporter EC50 [6]: 2.52 nM | ADCC reporter Top (MFI) [6]: 126000 MFI | EC50 [7]: 0.89 nM | Top (MFI) [7]: 31700 MFI | EC50 [8]: 1.18 nM | Top [8]: 35700 MFI | EC50 [9]: 2 nM | Top (MFI) [9]: 47400 MFI | EC50 [10]: 0.8 nM | Top (MFI) [10]: 17000 MFI
B1: 30H9B8F9 VH_P1/VL hIgG1 (antibody, V domains shown)
VH: QVQLQQPGAELVKPGASVKMSCKTSGYTFTTNNMHWVKQTPGQGLEWIGAIYPGSGATAYNQKFKGKATLTADKSSSTAYMQLSSLTSEASAVYYCARGMYGHGAMDYWGQGTSVIVSS
VL: DIVMTQSHKFMSRSVGDRVRITCKASQDVGTAVAWYQQKPGQSPKLLIYWATTRHSGVPDRFTGSGSGTDFIFTISNVQSEDLADYFCQQYSSNPLTFGAGTKLELK
notes: PTM-derisked chimeric, hIgG1; that P1 is the N=>S version follows from the humanized .p1 chains; also called 30H9B8F9.p1 hIgG1

EC50 [2]: 14.8 nM | Top [2]: 11200 MFI | EC50 [3]: 9.1 nM | Top (MFI) [3]: 72500 MFI | EC50 [4]: 6.98 nM | Top (MFI) [4]: 30300 MFI | EC50 [5]: 6.98 nM | ADCC reporter EC50 [6]: 4.23 nM | ADCC reporter Top (MFI) [6]: 122000 MFI | EC50 [7]: 2.73 nM | Top (MFI) [7]: 30800 MFI | EC50 [8]: 9.08 nM | Top [8]: 35700 MFI | EC50 [9]: 4.3 nM | Top (MFI) [9]: 36500 MFI | EC50 [10]: 5 nM | Top (MFI) [10]: 14400 MFI
B2: 62G10E4G8 VH_P3/VL hIgG1 (antibody, V domains shown)
VH: QVQLQQSGAEVVKPGASVKMSCKASGYTFPSYITHWVKQTPGQGLEWIGAIYPGNADTSYIQKFKGKATLTADKSSSTAYMQLSSLTSEDSAVYYCARGTYGTSAWFTYWGQGTLVTVSA
VL: DIVLTQSPATLSVTPGDSVSLSCRARQNIGNNLYWYQQKSHESPRLLIKYASQSISGIPSRFSGSGSGTDFTLTINSVETEDFGVYFCQQSFSWPLTFGAGTKLELK
notes: PTM-derisked chimeric, hIgG1; that P3 is the NA version follows from the humanized .p3 chains; also called 62G10E4G8.p3 hIgG1
